The source of these data is IntAct's records for PubMed 29892012.

B1: Forkhead box protein S1 (Homo sapiens), O43638 (parent)
chain: MQQQPLPGPGAPTTEPTKPPYSYIALIAMAIQSSPGQRATLSGIYRYIMGRFAFYRHNRPGWQNSIRHNLSLNECFVKVPRDDRKPGKGSYWTLDPDCHDMFEHGSFLRRRRRFTRQTGAEGTRGPAKARRGPLRATSQDPGVPNATTGRQCSFPPELPDPKGLSFGGLVGAMPASMCPATTDGRPRPPMEPKEISTPKPACPGELPVATSSSSCPAFGFPAGFSEAESFNKAPTPVLSPESGIGSSYQCRLQALNFCMGADPGLEHLLASAAPSPAPPTPPGSLRAPLPLPTDHKEPWVAGGFPVQGGSGYPLGLTPCLYRTPGMFFFE
B2: Keratin, type I cuticular Ha8 (Homo sapiens), O76015 (parent)
chain: MTSSYSSSSCPLGCTMAPGARNVSVSPIDIGCQPGAEANIAPMCLLANVAHANRVRVGSTPLGRPSLCLPPTCHTACPLPGTCHIPGNIGICGAYGENTLNGHEKETMQFLNDRLANYLEKVRQLEQENAELEATLLERSKCHESTVCPDYQSYFHTIEELQQKILCSKAENARLIVQIDNAKLAADDFRIKLESERSLRQLVEADKCGTQKLLDDATLAKADLEAQQESLKEEQLSLKSNHEQEVKILRSQLGEKLRIELDIEPTIDLNRVLGEMRAQYEAMLETNRQDVEQWFQAQSEGISLQDMSCSEELQCCQSEILELRCTVNALEVERQAQHTLKDCLQNSLCEAEDRFGTELAQMQSLISNVEEQLSEIRADLERQNQEYQVLLDVKTRLENEIATYRNLLESEDCKLPCNPCSTSPSCVTAPCAPRPSCGPCTTCGPTCGASTTGSRF
partner: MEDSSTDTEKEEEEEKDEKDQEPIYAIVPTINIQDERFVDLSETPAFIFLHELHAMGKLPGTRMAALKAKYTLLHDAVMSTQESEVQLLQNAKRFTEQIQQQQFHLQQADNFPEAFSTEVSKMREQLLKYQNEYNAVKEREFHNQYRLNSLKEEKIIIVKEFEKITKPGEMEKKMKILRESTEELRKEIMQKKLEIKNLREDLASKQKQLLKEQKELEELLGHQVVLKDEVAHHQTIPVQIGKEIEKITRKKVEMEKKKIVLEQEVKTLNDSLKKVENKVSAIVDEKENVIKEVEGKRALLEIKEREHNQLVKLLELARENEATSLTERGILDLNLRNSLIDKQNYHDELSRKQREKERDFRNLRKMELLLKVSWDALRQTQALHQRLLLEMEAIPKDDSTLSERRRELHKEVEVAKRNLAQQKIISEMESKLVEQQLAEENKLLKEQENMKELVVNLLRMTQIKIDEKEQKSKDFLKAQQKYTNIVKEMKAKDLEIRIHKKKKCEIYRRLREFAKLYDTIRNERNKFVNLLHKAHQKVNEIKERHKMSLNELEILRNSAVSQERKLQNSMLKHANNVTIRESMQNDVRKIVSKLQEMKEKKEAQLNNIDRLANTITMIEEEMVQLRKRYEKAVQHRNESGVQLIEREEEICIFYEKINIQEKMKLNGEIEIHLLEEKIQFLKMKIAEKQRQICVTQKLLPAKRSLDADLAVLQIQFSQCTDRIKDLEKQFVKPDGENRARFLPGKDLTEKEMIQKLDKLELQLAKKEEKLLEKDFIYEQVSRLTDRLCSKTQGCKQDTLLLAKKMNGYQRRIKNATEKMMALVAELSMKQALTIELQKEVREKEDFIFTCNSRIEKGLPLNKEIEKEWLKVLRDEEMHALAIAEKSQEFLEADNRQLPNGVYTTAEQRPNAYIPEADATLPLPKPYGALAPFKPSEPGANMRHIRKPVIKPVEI
B3: Vacuolar protein-sorting-associated protein 25 (Homo sapiens), Q9BRG1 (parent)
chain: MAMSFEWPWQYRFPPFFTLQPNVDTRQKQLAAWCSLVLSFCRLHKQSSMTVMEAQESPLFNNVKLQRKLPVESIQIVLEELRKKGNLEWLDKSKSSFLIMWRRPEEWGKLIYQWVSRSGQNNSVFTLYELTNGEDTEDEEFHGLDEATLLRALQALQQEHKAEIITVSDGRGVKFF
partner: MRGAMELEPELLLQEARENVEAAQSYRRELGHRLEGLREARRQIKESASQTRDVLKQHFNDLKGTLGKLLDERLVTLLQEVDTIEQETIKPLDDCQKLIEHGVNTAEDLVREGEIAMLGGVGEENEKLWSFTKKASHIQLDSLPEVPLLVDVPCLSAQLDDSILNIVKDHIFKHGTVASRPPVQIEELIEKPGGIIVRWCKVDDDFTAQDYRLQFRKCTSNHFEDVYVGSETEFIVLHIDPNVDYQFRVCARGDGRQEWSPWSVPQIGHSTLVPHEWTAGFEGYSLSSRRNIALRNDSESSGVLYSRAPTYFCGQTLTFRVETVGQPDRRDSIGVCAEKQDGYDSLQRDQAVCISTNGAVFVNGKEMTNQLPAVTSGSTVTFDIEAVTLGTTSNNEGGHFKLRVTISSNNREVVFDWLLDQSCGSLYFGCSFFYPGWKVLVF
B4: Cyclic AMP-dependent transcription factor ATF-4 (Homo sapiens), P18848 (parent)
chain: MTEMSFLSSEVLVGDLMSPFDQSGLGAEESLGLLDDYLEVAKHFKPHGFSSDKAKAGSSEWLAVDGLVSPSNNSKEDAFSGTDWMLEKMDLKEFDLDALLGIDDLETMPDDLLTTLDDTCDLFAPLVQETNKQPPQTVNPIGHLPESLTKPDQVAPFTFLQPLPLSPGVLSSTPDHSFSLELGSEVDITEGDRKPDYTAYVAMIPQCIKEEDTPSDNDSGICMSPESYLGSPQHSPSTRGSPNRSLPSPGVLCGSARPKPYDPPGEKMVAAKVKGEKLDKKLKKMEQNKTAATRYRQKKRAEQEALTGECKELEKKNEALKERADSLAKEIQYLKDLIEEVRKARGKKRVP
B5: Keratin, type I cuticular Ha8 (Homo sapiens), O76015 (parent)
chain: B2 chain
partner: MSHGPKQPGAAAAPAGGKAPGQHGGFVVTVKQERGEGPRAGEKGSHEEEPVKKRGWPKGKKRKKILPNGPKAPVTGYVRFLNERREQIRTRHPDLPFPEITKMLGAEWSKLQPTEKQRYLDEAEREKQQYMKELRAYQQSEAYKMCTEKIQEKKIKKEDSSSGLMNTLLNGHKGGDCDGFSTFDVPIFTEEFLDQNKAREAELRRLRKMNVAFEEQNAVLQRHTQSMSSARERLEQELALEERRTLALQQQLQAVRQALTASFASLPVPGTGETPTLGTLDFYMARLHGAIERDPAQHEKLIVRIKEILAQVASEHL

In one assay the parent is B1. The settings on record: with rbpms_human RBPMS.
In the case of T147M, the “effect of a mutation on the interaction” value was “with no effect”.

Variants of B2 are the subject of a further assay. The settings on record: with cc146_human CCDC146, Q8IYE0.
As for N270K, the “effect of a mutation on the interaction” value was “with no effect”.

The variants in another assay derive from B2. Conditions: with cc146_human CCDC146, Q8IYE0. The source holds these as a separate data set.
Regarding D306A, the “effect of a mutation on the interaction” value is “with no effect”.

In another assay the parent is B3. Conditions: with crlf3_human CRLF3, Q8IUI8.
For the variant P58Q, the “effect of a mutation on the interaction” value was “with no effect”.

In another assay the parent is B4. Conditions: with cc106_human CCDC106, Q9BWC9.
Chain of cc106_human CCDC106, Q9BWC9 (Q9BWC9 whole entry): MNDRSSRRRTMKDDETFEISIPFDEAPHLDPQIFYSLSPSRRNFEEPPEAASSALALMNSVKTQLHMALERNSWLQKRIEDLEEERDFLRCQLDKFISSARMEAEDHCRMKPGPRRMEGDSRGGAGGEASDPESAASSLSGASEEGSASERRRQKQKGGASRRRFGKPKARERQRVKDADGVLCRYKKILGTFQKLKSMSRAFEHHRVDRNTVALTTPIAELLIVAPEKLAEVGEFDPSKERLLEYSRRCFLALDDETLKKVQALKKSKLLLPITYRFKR
For L180F, the “effect of a mutation on the interaction” value is listed as “with no effect”.

Variants of B4 are the subject of a further assay. Conditions: with ldoc1_human LDOC1, O95751.
Chain of ldoc1_human LDOC1, O95751 (O95751 whole entry): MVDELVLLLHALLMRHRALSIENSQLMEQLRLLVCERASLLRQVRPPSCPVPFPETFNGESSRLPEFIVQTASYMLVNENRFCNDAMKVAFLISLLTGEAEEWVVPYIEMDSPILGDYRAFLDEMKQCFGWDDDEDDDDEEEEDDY
With L180F, the “effect of a mutation on the interaction” value is “with no effect”.

The variants in the next assay derive from B4. Conditions: with gps2_human GPS2, Q13227.
Chain of gps2_human GPS2, Q13227 (Q13227 whole entry): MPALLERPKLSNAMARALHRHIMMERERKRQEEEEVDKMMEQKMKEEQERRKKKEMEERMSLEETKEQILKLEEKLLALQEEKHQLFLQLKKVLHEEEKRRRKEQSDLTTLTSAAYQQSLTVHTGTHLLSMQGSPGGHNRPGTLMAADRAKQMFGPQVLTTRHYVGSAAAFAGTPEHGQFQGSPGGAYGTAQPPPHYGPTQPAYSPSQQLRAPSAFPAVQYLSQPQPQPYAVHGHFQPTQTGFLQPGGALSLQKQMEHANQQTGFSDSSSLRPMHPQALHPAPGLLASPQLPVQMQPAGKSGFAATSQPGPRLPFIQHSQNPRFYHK
On to L180F, for which the “effect of a mutation on the interaction” value is “with no effect”.

In a further assay the parent is B4. The settings on record: with tthy_human TTR.
On to L180F, for which the “effect of a mutation on the interaction” value was “with no effect”.

In the next assay the parent is B4. The settings on record: with fbw1a_human BTRC.
For the variant L180F, the “effect of a mutation on the interaction” value was “with no effect”.

The next assay covers variants of B5. Conditions: with hm20b_human HMG20B.
As to N270K, the “effect of a mutation on the interaction” value is listed as “with no effect”.
